# Several values for one entry are separate records, joined by “and”; a condition that tells them apart may be missing. Identical values can stand only once. Numbered stars: 1 amine (or outer) side, 2 acyl side, 3 side chain; on linkers, the order of the positions; unused ones are H or OH. Bridge positions count the residues as written; N and C are the ends. Square brackets hold non-standard residues; d marks the D form. * marks the point of attachment. tMeBn(DOTA-PP) = 1,3,5-trimethylbenzylidene, two thioethers to Cys, third CH2 bound to one N of piperazine whose other N bears DOTA, O=C(O)CN1CCN(CC(=O)O)CCN(CC(=O)N2CCN(Cc3cc(C[*:1])cc(C[*:2])c3)CC2)CCN(CC(=O)O)CC1; 3MeBn = 3-Methylbenzylidene (m-xylylene thioether bridge from α,α′-dibromo-m-xylene); N4Ac = 6-Carboxy-1,4,8,11-tetraazaundecane, an N4-chelator, NCCNCC(CNCCN)C(=O)*; DOTA = O=C(O)CN1CCN(CC(=O)O)CCN(CC(=O)*)CCN(CC(=O)O)CC1; Oic = O=C(O)[C@@H]1C[C@@H]2CCCC[C@@H]2N1; mXylylene = c1cc(C[*:1])cc(C[*:2])c1; NMeF = CN[C@@H](Cc1ccccc1)C(=O)O; Nle = CCCC[C@H](N)C(=O)O; Hexanoyl = CCCCCC(=O)*; Phb = not defined here; AEEA = NCCOCCOCC(=O)O; Inp = O=C(O)C1CCNCC1; Ahx = NCCCCCC(=O)O; Mpa = O=C(O)CCS
# B1: Hex-[Cys(tMeBn(DOTA-PP))-Pro-Pro-Ala-Ala-Phe-Cys]-Asp-NH2 (peptide)
# peptide: Hexanoyl-CPPAAFCD-NH2
# modifications: linker 1-7 via tMeBn(DOTA-PP)
# SMILES: CCCCCC(=O)N[C@H]1CSCc2cc(cc(CN3CCN(C(=O)CN4CCN(CC(=O)O)CCN(CC(=O)O)CCN(CC(=O)O)CC4)CC3)c2)CSC[C@@H](C(=O)N[C@@H](CC(=O)O)C(N)=O)NC(=O)[C@H](Cc2ccccc2)NC(=O)[C@H](C)NC(=O)[C@H](C)NC(=O)[C@@H]2CCCN2C(=O)[C@@H]2CCCN2C1=O
# notes: also called 3BP-3746
# B2: DOTA-Nle-[Cys(3MeBn)-Pro-Pro-Thr-Glu-Phe-Cys]-Asp-His-Phe-Arg-Asp-NH2 (peptide)
# peptide: {DOTA}-[Nle]CPPTEFCDHFRD-NH2
# modifications: linker 2-8 via mXylylene
# SMILES: CCCC[C@H](NC(=O)CN1CCN(CC(=O)O)CCN(CC(=O)O)CCN(CC(=O)O)CC1)C(=O)N[C@H]1CSCc2cccc(c2)CSC[C@@H](C(=O)N[C@@H](CC(=O)O)C(=O)N[C@@H](Cc2c[nH]cn2)C(=O)N[C@@H](Cc2ccccc2)C(=O)N[C@@H](CCCNC(=N)N)C(=O)N[C@@H](CC(=O)O)C(N)=O)NC(=O)[C@H](Cc2ccccc2)NC(=O)[C@H](CCC(=O)O)NC(=O)[C@H]([C@@H](C)O)NC(=O)[C@@H]2CCCN2C(=O)[C@@H]2CCCN2C1=O
# notes: also called 3BP-3088
# B3: DOTA-Met-[Cys(3MeBn)-Pro-Pro-Thr-Glu-Phe-Cys]-Asp-His-Phe-Arg-Asp-NH2 (peptide)
# peptide: {DOTA}-MCPPTEFCDHFRD-NH2
# modifications: linker 2-8 via mXylylene
# SMILES: CSCC[C@H](NC(=O)CN1CCN(CC(=O)O)CCN(CC(=O)O)CCN(CC(=O)O)CC1)C(=O)N[C@H]1CSCc2cccc(c2)CSC[C@@H](C(=O)N[C@@H](CC(=O)O)C(=O)N[C@@H](Cc2c[nH]cn2)C(=O)N[C@@H](Cc2ccccc2)C(=O)N[C@@H](CCCNC(=N)N)C(=O)N[C@@H](CC(=O)O)C(N)=O)NC(=O)[C@H](Cc2ccccc2)NC(=O)[C@H](CCC(=O)O)NC(=O)[C@H]([C@@H](C)O)NC(=O)[C@@H]2CCCN2C(=O)[C@@H]2CCCN2C1=O
# B4: DOTA-O2Oc-[Cys(3MeBn)-Pro-Pro-Thr-Glu-Phe-Cys]-Asp-His-Nmf-Arg-Asp-NH2 (peptide)
# peptide: {DOTA}-[AEEA]CPPTEFCDH[NMeF]RD-NH2
# modifications: linker 2-8 via mXylylene
# SMILES: C[C@@H](O)[C@@H]1NC(=O)[C@@H]2CCCN2C(=O)[C@@H]2CCCN2C(=O)[C@@H](NC(=O)COCCOCCNC(=O)CN2CCN(CC(=O)O)CCN(CC(=O)O)CCN(CC(=O)O)CC2)CSCc2cccc(c2)CSC[C@@H](C(=O)N[C@@H](CC(=O)O)C(=O)N[C@@H](Cc2c[nH]cn2)C(=O)N(C)[C@@H](Cc2ccccc2)C(=O)N[C@@H](CCCNC(=N)N)C(=O)N[C@@H](CC(=O)O)C(N)=O)NC(=O)[C@H](Cc2ccccc2)NC(=O)[C@H](CCC(=O)O)NC1=O
# notes: also called 3BP-3267
# B5: Phb-[Cys(3MeBn)-Pro-Pro-Thr-Gln-Phe-Cys]-Asp-NH2 (peptide)
# peptide: Phb-CPPTQFCD-NH2
# modifications: linker 1-7 via mXylylene; reading uncertain; also: printed as Phb-[Cys(3MeBn)-Pro-Pro-Thr-Gln-Phe-Cys]-Asp-NH2
# notes: also called 3BP-3418
# B6: Ac-Met-[Cys(3MeBn)-Pro-Pro-Thr-Glu-phe-Cys]-Asp-His-Phe-Arg-Asp-NH2 (peptide)
# peptide: Ac-MCPPTE[dF]CDHFRD-NH2
# modifications: linker 2-8 via mXylylene
# SMILES: CSCC[C@H](NC(C)=O)C(=O)N[C@H]1CSCc2cccc(c2)CSC[C@@H](C(=O)N[C@@H](CC(=O)O)C(=O)N[C@@H](Cc2c[nH]cn2)C(=O)N[C@@H](Cc2ccccc2)C(=O)N[C@@H](CCCNC(=N)N)C(=O)N[C@@H](CC(=O)O)C(N)=O)NC(=O)[C@@H](Cc2ccccc2)NC(=O)[C@H](CCC(=O)O)NC(=O)[C@H]([C@@H](C)O)NC(=O)[C@@H]2CCCN2C(=O)[C@@H]2CCCN2C1=O
# notes: also called 3BP-3180
# B7: [3MeBn-Spa-Pro-Pro-Thr-Gln-Phe-Cys]-Asp-NH2 (peptide)
# peptide: [Mpa]PPTQFCD-NH2
# modifications: linker 1-7 via mXylylene
# SMILES: C[C@@H](O)[C@@H]1NC(=O)[C@@H]2CCCN2C(=O)[C@@H]2CCCN2C(=O)CCSCc2cccc(c2)CSC[C@@H](C(=O)N[C@@H](CC(=O)O)C(N)=O)NC(=O)[C@H](Cc2ccccc2)NC(=O)[C@H](CCC(N)=O)NC1=O
# notes: also called 3BP-3419
# B8: Ac-Met-[Cys(3MeBn)-Pro-Pro-Thr-Glu-Phe-Cys]-Asp-His-Phe-NH2 (peptide)
# peptide: Ac-MCPPTEFCDHF-NH2
# modifications: linker 2-8 via mXylylene
# SMILES: CSCC[C@H](NC(C)=O)C(=O)N[C@H]1CSCc2cccc(c2)CSC[C@@H](C(=O)N[C@@H](CC(=O)O)C(=O)N[C@@H](Cc2c[nH]cn2)C(=O)N[C@@H](Cc2ccccc2)C(N)=O)NC(=O)[C@H](Cc2ccccc2)NC(=O)[C@H](CCC(=O)O)NC(=O)[C@H]([C@@H](C)O)NC(=O)[C@@H]2CCCN2C(=O)[C@@H]2CCCN2C1=O
# notes: also called 3BP-3199
# B9: DOTA-[Cys(3MeBn)-Pro-Pro-Thr-Glu-Phe-Cys]-Asp-His-Phe-Arg-Asp-NH2 (peptide)
# peptide: {DOTA}-CPPTEFCDHFRD-NH2
# modifications: linker 1-7 via mXylylene
# SMILES: C[C@@H](O)[C@@H]1NC(=O)[C@@H]2CCCN2C(=O)[C@@H]2CCCN2C(=O)[C@@H](NC(=O)CN2CCN(CC(=O)O)CCN(CC(=O)O)CCN(CC(=O)O)CC2)CSCc2cccc(c2)CSC[C@@H](C(=O)N[C@@H](CC(=O)O)C(=O)N[C@@H](Cc2c[nH]cn2)C(=O)N[C@@H](Cc2ccccc2)C(=O)N[C@@H](CCCNC(=N)N)C(=O)N[C@@H](CC(=O)O)C(N)=O)NC(=O)[C@H](Cc2ccccc2)NC(=O)[C@H](CCC(=O)O)NC1=O
# notes: also called 3BP-3174
# B10: Ac-Met-[Cys(3MeBn)-Oic-Pro-Thr-Glu-Phe-Cys]-Asp-His-Phe-Arg-Asp-NH2 (peptide)
# peptide: Ac-MC[Oic]PTEFCDHFRD-NH2
# modifications: linker 2-8 via mXylylene
# SMILES: CSCC[C@H](NC(C)=O)C(=O)N[C@H]1CSCc2cccc(c2)CSC[C@@H](C(=O)N[C@@H](CC(=O)O)C(=O)N[C@@H](Cc2c[nH]cn2)C(=O)N[C@@H](Cc2ccccc2)C(=O)N[C@@H](CCCNC(=N)N)C(=O)N[C@@H](CC(=O)O)C(N)=O)NC(=O)[C@H](Cc2ccccc2)NC(=O)[C@H](CCC(=O)O)NC(=O)[C@H]([C@@H](C)O)NC(=O)[C@@H]2CCCN2C(=O)[C@@H]2C[C@@H]3CCCC[C@@H]3N2C1=O
# notes: also called 3BP-3216
# B11: Ac-Met-[Cys(3MeBn)-pro-Pro-Thr-Glu-Phe-Cys]-Asp-His-Phe-Arg-Asp-NH2 (peptide)
# peptide: Ac-MC[dP]PTEFCDHFRD-NH2
# modifications: linker 2-8 via mXylylene
# SMILES: CSCC[C@H](NC(C)=O)C(=O)N[C@H]1CSCc2cccc(c2)CSC[C@@H](C(=O)N[C@@H](CC(=O)O)C(=O)N[C@@H](Cc2c[nH]cn2)C(=O)N[C@@H](Cc2ccccc2)C(=O)N[C@@H](CCCNC(=N)N)C(=O)N[C@@H](CC(=O)O)C(N)=O)NC(=O)[C@H](Cc2ccccc2)NC(=O)[C@H](CCC(=O)O)NC(=O)[C@H]([C@@H](C)O)NC(=O)[C@@H]2CCCN2C(=O)[C@H]2CCCN2C1=O
# notes: also called 3BP-3176
# B12: Ac-Met-[Cys(3MeBn)-Pro-Oic-Thr-Glu-Phe-Cys]-Asp-His-Phe-Arg-Asp-NH2 (peptide)
# peptide: Ac-MCP[Oic]TEFCDHFRD-NH2
# modifications: linker 2-8 via mXylylene
# SMILES: CSCC[C@H](NC(C)=O)C(=O)N[C@H]1CSCc2cccc(c2)CSC[C@@H](C(=O)N[C@@H](CC(=O)O)C(=O)N[C@@H](Cc2c[nH]cn2)C(=O)N[C@@H](Cc2ccccc2)C(=O)N[C@@H](CCCNC(=N)N)C(=O)N[C@@H](CC(=O)O)C(N)=O)NC(=O)[C@H](Cc2ccccc2)NC(=O)[C@H](CCC(=O)O)NC(=O)[C@H]([C@@H](C)O)NC(=O)[C@@H]2C[C@@H]3CCCC[C@@H]3N2C(=O)[C@@H]2CCCN2C1=O
# notes: also called 3BP-3217
# B13: DOTA-Ahx-[Cys(3MeBn)-Pro-Pro-Thr-Glu-Phe-Cys]-Asp-His-Nmf-Arg-Asp-NH2 (peptide)
# peptide: {DOTA}-[Ahx]CPPTEFCDH[NMeF]RD-NH2
# modifications: linker 2-8 via mXylylene
# SMILES: C[C@@H](O)[C@@H]1NC(=O)[C@@H]2CCCN2C(=O)[C@@H]2CCCN2C(=O)[C@@H](NC(=O)CCCCCNC(=O)CN2CCN(CC(=O)O)CCN(CC(=O)O)CCN(CC(=O)O)CC2)CSCc2cccc(c2)CSC[C@@H](C(=O)N[C@@H](CC(=O)O)C(=O)N[C@@H](Cc2c[nH]cn2)C(=O)N(C)[C@@H](Cc2ccccc2)C(=O)N[C@@H](CCCNC(=N)N)C(=O)N[C@@H](CC(=O)O)C(N)=O)NC(=O)[C@H](Cc2ccccc2)NC(=O)[C@H](CCC(=O)O)NC1=O
# notes: also called 3BP-3266
# B14: DOTA-Inp-[Cys(3MeBn)-Pro-Pro-Thr-Glu-Phe-Cys]-Asp-His-Nmf-Arg-Asp-NH2 (peptide)
# peptide: {DOTA}-[Inp]CPPTEFCDH[NMeF]RD-NH2
# modifications: linker 2-8 via mXylylene
# SMILES: C[C@@H](O)[C@@H]1NC(=O)[C@@H]2CCCN2C(=O)[C@@H]2CCCN2C(=O)[C@@H](NC(=O)C2CCN(C(=O)CN3CCN(CC(=O)O)CCN(CC(=O)O)CCN(CC(=O)O)CC3)CC2)CSCc2cccc(c2)CSC[C@@H](C(=O)N[C@@H](CC(=O)O)C(=O)N[C@@H](Cc2c[nH]cn2)C(=O)N(C)[C@@H](Cc2ccccc2)C(=O)N[C@@H](CCCNC(=N)N)C(=O)N[C@@H](CC(=O)O)C(N)=O)NC(=O)[C@H](Cc2ccccc2)NC(=O)[C@H](CCC(=O)O)NC1=O
# notes: also called 3BP-3265
# Molecular target: T1, human fibroblast activation protein (FAP) on WI-38 fibroblasts (human, UniProt Q12884 1-760)
# T1 construct: FAP-expressing human WI-38 fibroblasts (ECACC)
# Test: competitive FACS, WI-38 cells, Cy5-labeled peptide as competitor
row,pIC50 Category (FACS) [pIC50],Binder
1,≤ 6,B1
2,≤ 6,"N4Ac-[AEEA][Nle]CPPTEFC-OH (linker 3-9 via 3MeBn, also called 3BP-4228) [N4Ac-O2Oc-Nle-[Cys-(3MeBn)-Pro-Pro-Thr-Glu-Phe-Cys]-OH]"

# Molecular target: Recombinant human FAP (R&D systems, #3715-SE) (human, UniProt Q12884 26-760)
# Test: cell-based or functional assay
row,pIC50 Category (Activity),Binder
1,6.1 pIC50 and 7 pIC50,B2
2,6.1 pIC50 and 7 pIC50,B3
3,6.1 pIC50 and 7 pIC50,B4
4,6.1 pIC50 and 7 pIC50,B5
5,6.1 pIC50 and 7 pIC50,B6
6,6.1 pIC50 and 7 pIC50,B7
7,7.1 pIC50 and 8 pIC50,B8
8,6.1 pIC50 and 7 pIC50,B9
9,6.1 pIC50 and 7 pIC50,B10
10,6.1 pIC50 and 7 pIC50,B11
11,6.1 pIC50 and 7 pIC50,B12
12,6.1 pIC50 and 7 pIC50,B13
13,6.1 pIC50 and 7 pIC50,B14

# Molecular target: T2, fibroblast activation protein (FAP) on FAP-expressing human WI-38 fibroblasts (human, UniProt Q12884 1-760)
# T2 construct: also called human FAP
# Test: competitive FACS, WI-38 cells, vs Cy5 tracer m3; C = pIC50 6.1-7.0
row,pIC50 Category (FACS),Binder
1,6.1 pIC50 and 7 pIC50,B2
2,6.1 pIC50 and 7 pIC50,B3
3,6.1 pIC50 and 7 pIC50,B4
4,6.1 pIC50 and 7 pIC50,B5
5,6.1 pIC50 and 7 pIC50,B6
6,6.1 pIC50 and 7 pIC50,B7
7,6.1 pIC50 and 7 pIC50,B8
8,6.1 pIC50 and 7 pIC50,B9
9,6.1 pIC50 and 7 pIC50,B10
10,6.1 pIC50 and 7 pIC50,B11
11,6.1 pIC50 and 7 pIC50,B12
12,6.1 pIC50 and 7 pIC50,B13
13,6.1 pIC50 and 7 pIC50,B14
